Among the data in PMC10397247 are interaction score values, retold here.

The target in one assay is T1, 4H72-bA.
T1 chain: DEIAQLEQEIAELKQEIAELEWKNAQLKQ
As to the kind of experiment: two-hybrid library CCNG1.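 Note: natural log of median RNA to DNA barcode read ratio; higher means stronger binding.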

The target in a further assay is T2, 4H717-bA.
T2 chain: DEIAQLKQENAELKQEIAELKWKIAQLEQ
The assay is described as follows: two-hybrid library CCNG1.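 Note: natural log of median RNA to DNA barcode read ratio; higher means stronger binding.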

The next assay addresses T3, 4H607-bA.
T3 chain: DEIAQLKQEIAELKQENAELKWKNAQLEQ
The assay is described as follows: two-hybrid library CCNG1.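 Note: natural log of median RNA to DNA barcode read ratio; higher means stronger binding.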

For another assay, the target named is T4, 4H918-bA.
T4 chain: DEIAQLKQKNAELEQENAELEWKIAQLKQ
As to the kind of experiment: two-hybrid library CCNG1.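 Note: natural log of median RNA to DNA barcode read ratio; higher means stronger binding.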

In a further assay the target is T5, 4H908-bA.
T5 chain: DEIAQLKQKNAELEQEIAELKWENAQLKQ
As to the kind of experiment: two-hybrid library CCNG1.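 Note: natural log of median RNA to DNA barcode read ratio; higher means stronger binding.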

A further assay addresses T6, 4H850-bN.
T6 chain: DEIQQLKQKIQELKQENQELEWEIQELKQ
The assay is described as follows: two-hybrid library CCNG1.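 Note: natural log of median RNA to DNA barcode read ratio; higher means stronger binding.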

For a further assay, the target named is T7, 4H568-bA.
T7 chain: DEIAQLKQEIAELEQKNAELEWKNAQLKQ
The assay is described as follows: two-hybrid library CCNG1.

The next assay addresses T8, 4H797-bA.
T8 chain: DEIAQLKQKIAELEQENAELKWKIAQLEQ
As to the kind of experiment: two-hybrid library CCNG1.

In the next assay the target is T9, 4H883-bA.
T9 chain: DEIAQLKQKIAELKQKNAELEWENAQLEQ
The assay is described as follows: two-hybrid library CCNG1.

A further assay has as its target T10, O10-bS.
T10 chain: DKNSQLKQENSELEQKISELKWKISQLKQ
The assay is described as follows: two-hybrid library CCNG1.

Another assay deals with T11, 4H754-bA.
T11 chain: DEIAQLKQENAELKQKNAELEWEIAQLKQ
The assay is described as follows: two-hybrid library CCNG1.

For the next assay, the target named is T12, P5A-bA.
T12 chain: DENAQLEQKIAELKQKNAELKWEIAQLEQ
The assay is described as follows: two-hybrid library CCNG1.

The target in a further assay is T13, 4H687-bA.
T13 chain: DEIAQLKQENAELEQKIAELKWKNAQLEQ
As to the kind of experiment: two-hybrid library CCNG1.

In the next assay the target is T14, 4H967-bA.
T14 chain: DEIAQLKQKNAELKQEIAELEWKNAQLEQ
The assay is described as follows: two-hybrid library CCNG1.

For another assay, the target named is T15, 4H953-bA.
T15 chain: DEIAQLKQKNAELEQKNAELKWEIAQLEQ
The assay is described as follows: two-hybrid library CCNG1.

A further assay addresses T16, 4H2937-bH.
T16 chain: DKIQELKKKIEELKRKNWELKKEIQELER
The assay is described as follows: two-hybrid library CCNG1.

The target of a further assay is T17, 4H491-bH.
T17 chain: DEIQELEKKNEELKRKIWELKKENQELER
As to the kind of experiment: two-hybrid library CCNG1.

In the next assay the target is T18, 4H2944-bH.
T18 chain: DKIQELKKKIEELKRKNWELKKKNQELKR
The assay is described as follows: two-hybrid library CCNG1.

In the next assay the target is T19, 4H48-bH.
T19 chain: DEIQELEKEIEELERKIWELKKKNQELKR
The assay is described as follows: two-hybrid library CCNG1.

The target in another assay is T20, 4H2883-bH.
T20 chain: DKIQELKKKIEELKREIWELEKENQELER
The assay is described as follows: two-hybrid library CCNG1.

A further assay addresses T21, 4H342-bH.
T21 chain: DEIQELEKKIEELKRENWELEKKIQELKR
As to the kind of experiment: two-hybrid library CCNG1.

The target of a further assay is T22, APC4436-AA.
T22 chain: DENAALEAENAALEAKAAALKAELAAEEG
The assay is described as follows: two-hybrid library CCmax. To be noted: mean of both orientations.

The target in a further assay is T23, APC2405-AA.
T23 chain: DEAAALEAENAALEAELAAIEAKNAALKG
The assay is described as follows: two-hybrid library CCmax. As to conditions: mean of both orientations.

The next assay deals with T24, 4H807-AA.
T24 chain: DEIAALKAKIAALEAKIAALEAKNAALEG
The assay is described as follows: two-hybrid library CCmax. As to conditions: mean of both orientations.

Another assay has as its target T25, APC6108-AA.
T25 chain: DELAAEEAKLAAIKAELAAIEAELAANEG
The assay is described as follows: two-hybrid library CCmax. To be noted: mean of both orientations.

The target in another assay is T26, APC8910-AA.
T26 chain: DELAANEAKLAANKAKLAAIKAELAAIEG
As to the kind of experiment: two-hybrid library CCmax. To be noted: mean of both orientations.

A further assay addresses T27, 4H2290-AA.
T27 chain: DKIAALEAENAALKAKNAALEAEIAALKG
The assay is described as follows: two-hybrid library CCmax. To be noted: mean of both orientations.

For another assay, the target named is T28, APC5383-AA.
T28 chain: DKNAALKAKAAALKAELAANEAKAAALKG
As to the kind of experiment: two-hybrid library CCmax. To be noted: mean of both orientations.

The target of the next assay is T29, 4H733-AA.
T29 chain: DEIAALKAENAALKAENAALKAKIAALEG
The assay is described as follows: two-hybrid library CCmax. To be noted: mean of both orientations.

The next assay has as its target T30, APC232-AA.
T30 chain: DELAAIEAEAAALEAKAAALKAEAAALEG
As to the kind of experiment: two-hybrid library CCmax. To be noted: mean of both orientations.

In the next assay the target is T31, 4H2458-AA.
T31 chain: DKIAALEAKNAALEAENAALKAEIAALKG
The assay is described as follows: two-hybrid library CCmax. As to conditions: mean of both orientations.

A further assay addresses T32, APC1434-AA.
T32 chain: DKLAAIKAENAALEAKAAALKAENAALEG
As to the kind of experiment: two-hybrid library CCmax. To be noted: mean of both orientations.

Another assay has as its target T33, 4H716-AA.
T33 chain: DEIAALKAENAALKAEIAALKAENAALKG
The assay is described as follows: two-hybrid library CCmax. To be noted: mean of both orientations.

A further assay has as its target T34, APC4264-AA.
T34 chain: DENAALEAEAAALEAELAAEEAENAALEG
The assay is described as follows: two-hybrid library CCmax. To be noted: mean of both orientations.

The next assay has as its target T35, APC4011-AA.
T35 chain: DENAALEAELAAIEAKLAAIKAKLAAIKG
As to the kind of experiment: two-hybrid library CCmax. To be noted: mean of both orientations.

For the next assay, the target named is T36, 4H3330-AA.
T36 chain: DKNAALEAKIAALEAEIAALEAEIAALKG
As to the kind of experiment: two-hybrid library CCmax. As to conditions: mean of both orientations.

For the next assay, the target named is T37, APC7099-AA.
T37 chain: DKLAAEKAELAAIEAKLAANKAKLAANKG
The assay is described as follows: two-hybrid library CCmax. To be noted: mean of both orientations.

The target in a further assay is T38, APC8191-AA.
T38 chain: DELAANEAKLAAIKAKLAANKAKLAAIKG
The assay is described as follows: two-hybrid library CCmax. As to conditions: mean of both orientations.

The target in another assay is T39, 4H2148-AA.
T39 chain: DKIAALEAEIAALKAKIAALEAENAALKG
The assay is described as follows: two-hybrid library CCmax.

A further assay deals with T40, APC1015-AA.
T40 chain: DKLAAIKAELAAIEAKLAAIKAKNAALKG
The assay is described as follows: two-hybrid library CCmax. As to conditions: mean of both orientations.

The next assay has as its target T41, APC9096-AA.
T41 chain: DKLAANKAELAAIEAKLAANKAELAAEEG
As to the kind of experiment: two-hybrid library CCmax. To be noted: mean of both orientations.

Another assay deals with T42, APC9319-AA.
T42 chain: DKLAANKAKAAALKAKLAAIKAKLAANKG
As to the kind of experiment: two-hybrid library CCmax. To be noted: mean of both orientations.

The next assay addresses T43, APC3645-AA.
T43 chain: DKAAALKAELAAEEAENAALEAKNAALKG
As to the kind of experiment: two-hybrid library CCmax. As to conditions: mean of both orientations.

In the next assay the target is T44, APC2237-AA.
T44 chain: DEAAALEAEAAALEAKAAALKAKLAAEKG
As to the kind of experiment: two-hybrid library CCmax. As to conditions: mean of both orientations.

The next assay concerns the target T45, 4H2447-AA.
T45 chain: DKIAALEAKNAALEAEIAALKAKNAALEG
As to the kind of experiment: two-hybrid library CCmax. To be noted: mean of both orientations.

A further assay has as its target T46, P8mSN.
T46 chain: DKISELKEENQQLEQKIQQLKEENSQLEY
The assay is described as follows: two-hybrid library CCNG1.

The next assay has as its target T47, P2mSN.
T47 chain: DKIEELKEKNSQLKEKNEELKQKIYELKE
As to the kind of experiment: two-hybrid library CCNG1.

The next assay has as its target T48, P12mSN.
T48 chain: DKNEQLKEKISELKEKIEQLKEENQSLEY
The assay is described as follows: two-hybrid library CCNG1.

The next assay addresses T49, P6mSN.
T49 chain: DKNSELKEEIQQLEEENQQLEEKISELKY
The assay is described as follows: two-hybrid library CCNG1.

A further assay deals with T50, P4mSN.
T50 chain: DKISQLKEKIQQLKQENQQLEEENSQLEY
The assay is described as follows: two-hybrid library CCNG1.

The target of a further assay is T51, P1mSN.
T51 chain: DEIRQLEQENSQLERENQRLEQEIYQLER
As to the kind of experiment: two-hybrid library CCNG1.

The next assay has as its target T52, P3mSN.
T52 chain: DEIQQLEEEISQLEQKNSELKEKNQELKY
The assay is described as follows: two-hybrid library CCNG1.

Another assay concerns the target T53, P9mSN.
T53 chain: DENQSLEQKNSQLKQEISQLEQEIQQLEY
The assay is described as follows: two-hybrid library CCNG1.

Another assay has as its target T54, P5mSN.
T54 chain: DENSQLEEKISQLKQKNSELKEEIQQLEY
The assay is described as follows: two-hybrid library CCNG1.

Another assay has as its target T55, P7mSN.
T55 chain: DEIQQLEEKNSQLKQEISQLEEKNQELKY
The assay is described as follows: two-hybrid library CCNG1.

B1: 4H568-bA (peptide)
chain: DEIAQLKQEIAELEQKNAELEWKNAQLKQ
Take B1: the interaction score with 4H72-bA is -0.657; with 4H717-bA, -0.468; with 4H607-bA it was -1.48; in the assay with 4H918-bA it was -0.305; with 4H908-bA, -1.26; in the assay with 4H850-bN, 0.0841. Further, the interaction score with 4H568-bA is 1.33; with 4H797-bA, -0.352; with 4H883-bA, 1.54; with O10-bS, -1.27; with 4H754-bA, -0.527; in the assay with P5A-bA it was -1.54. The interaction score in the assay with 4H687-bA was -0.587; in the assay with 4H967-bA, -0.986; in the assay with 4H953-bA, -1.16.

B2: 4H2883-bH (peptide)
chain: DKIQELKKKIEELKREIWELEKENQELER
For the molecule B2, the interaction score in the assay with 4H2937-bH is 0.674; with 4H491-bH it was 0.298; with 4H2944-bH it was 0.783; with 4H48-bH, 1.17; with 4H2883-bH it was 1.73; in the assay with 4H342-bH, -0.175.

B3: 4H2148-AA (peptide)
chain: DKIAALEAEIAALKAKIAALEAENAALKG
In the case of B3, the interaction score with APC4436-AA was -1.32; in the assay with APC2405-AA, -1.19; with 4H807-AA it was -1.41; with APC6108-AA, -1.13; in the assay with APC8910-AA, -1.35; with 4H2290-AA it was -1.47. The interaction score in the assay with APC5383-AA was -1.66; with 4H733-AA, -1.59; with APC232-AA, -1.38; with 4H2458-AA it was -1.46; with APC1434-AA, -1.39; in the assay with 4H716-AA, -1.22. Also, the interaction score in the assay with APC4264-AA is -1.81; with APC4011-AA it was -0.327; in the assay with 4H3330-AA, -0.193; with APC7099-AA, -1.55; with APC8191-AA, -1.4; with 4H2148-AA, 1.63. The interaction score with APC1015-AA is 0.959; with APC9096-AA it was -1.24; with APC9319-AA, -1.42; with APC3645-AA, -1.31; in the assay with APC2237-AA it was -1.14; in the assay with 4H2447-AA, -1.42.

B4: P12mSN (peptide)
chain: DKNEQLKEKISELKEKIEQLKEENQSLEY
As for B4, the interaction score in the assay with P8mSN is -2.51; in the assay with P2mSN it was -1.65; with P12mSN it was -0.695; in the assay with P6mSN, -1.04; with P4mSN, -1.35; in the assay with P1mSN it was -1.32. The interaction score with P3mSN is -1.72; with P9mSN it was -2.15; in the assay with P5mSN it was -1.2; with P7mSN it was -0.807.
